In doi:10.1101/2025.11.18.25340499 (medRxiv, 2025):

B1: 13-3B5 (antibody, V domains shown)
VH: QVQLVQSGAVVAKPGASVQVSCKTSGYTFTGQYLHWVRQAPGQGLEWIGWINPSSGVTKFAEKFEGRATMTRDTSITTAYIDLRSLRSDDTATYYCATLSLGVYYVGMVAWGQGTLVTVSS
VL: SYELTQPPSVSVSPGQTATITCSGDGLAQQHVYWFQQRPGQAPLLIIYKDIERPSGIPERFSGSSSGTTAMLTISGVQAEDEADYYCQSGDRTATSVLFGGGTKMTVL
B2: 11-3F6 (antibody, V domains shown)
VH: EVQLVESGGGLVKPGGSLRLSCAASGFTFSSYTMDWVRQAPGKGLEWVSSIGSNGDYIYYADSVRGRFTISRDNAKNSLYLQMNSLRPDDTADYYCARGQLAVAGTHFDYWGRGSLVTVSS
VL: DIQMTQSPSSLSASVGDRVTISCRASQKVNKYVNWYQQTPGKAPRLLIYAASTLQSGVPSRFSGSGSGANFTLTISGLQPEDFAIYFCQQSYSPLCTFGQGTKLEIK
B3: MuSK1A (antibody, V domains shown)
VH: QVQLVQSGAEVKKPGASVKVSCKTSGYTFNNYDINWVRQAAGQGLEWMGWMNPYSGNTGYAQKFQGRVTMTRNISITTVYMELSSLRSEDTAVYYCAREVRGDTGYGGGSDYWGQGTLVTVSS
VL: SYELTQPPSVSLSPGQTATITCSGDKLDDNYVCWYQQKPGQSPVLVIYQDTMRPSGIPERFSGSNSGNIATLTISGTQAVDEADYYCQAWDGSTVVFGGGTRLTVL
B4: MuSK1B (antibody, V domains shown)
VH: EVQLVEWGAGLLKPSETLSLTCAVYGGSFSGDYWWTWIRQPPGKGLEWIGEIDHTGNTNYNPSLKSRLTLSVDMSKNHFSLKLTSVTAADTALYFCARQEGLGYYDSWGQGTLVTVSS
VL: SYELTQSPSVSVSPGQTANITCSGDKLGDRYASWYQQKPAQSPVLVIYQDDRRPSGIPERFSGSNSGNTATLTISGTQGMDEADYYCQAWDGTTVFGGGTKLTVL

Experiments:
MuSK Bait [1] = target: T1, MuSK Bait (Homo sapiens (species of MuSK not …, UniProt O15146)); test: SPR
MuSK Bait [2] = target: T1, MuSK Bait; test: AlphaScreen or HTRF

Binder | binding result (MuSK Bait [1]) | binding result (MuSK Bait [2])
B1 | binds | 
B2 |  | binds
B3 |  | binds
B4 |  | binds
